The record followed here is PMC10001252.

Test [1] addresses β-lactoglobulin (bovine) (UniProt P02754). Put plainly: ITC; LF (0.25 mM, syringe) injected into βLG (0.1 mM, cell); 10 mM MES pH 5.5, no added NaCl, 25 °C; fitted with PyTC. (Isothermal titration calorimetry measures the heat released or taken up as one component is titrated into another.)
For test [2] the target is unchanged. Description: ITC; LF (0.25 mM, syringe) injected into βLG (0.1 mM, cell); 10 mM MES pH 5.5, 5 mM added NaCl, 25 °C; fitted with PyTC.
Test [3] shares this target. Description: ITC; LF (0.25 mM, syringe) injected into βLG (0.1 mM, cell); 10 mM MES pH 5.5, 15 mM added NaCl, 25 °C; fitted with PyTC.
For test [4] the target is unchanged. Description: ITC; LF (0.25 mM, syringe) injected into βLG (0.1 mM, cell); 10 mM MES pH 5.5, 20 mM added NaCl, 25 °C; fitted with PyTC.
Test [5] shares this target. Description: ITC; LF (0.25 mM, syringe) injected into βLG (0.1 mM, cell); 10 mM MES pH 5.5, 2.5 mM added NaCl, 25 °C; fitted with PyTC.
For test [6] the target is unchanged. Put plainly: co-sedimentation + other: turbidity; LF-βLG mixtures (total 0.55 mM) prepared at 0, 100, 200 or 400 mM NaCl and desalted by dialysis (24 h) against 10 mM MES pH 5.5, room temperature; coacervate yield after centrifugation at 28,000 g and HPLC of the supernatant.

As to lactoferrin (natural protein), the Ka with β-lactoglobulin (bovine) [1] came out at 421000 M⁻¹; in the test with β-lactoglobulin (bovine) [2], 275000 M⁻¹; with β-lactoglobulin (bovine) [3], 84700 M⁻¹; with β-lactoglobulin (bovine) [4], 33200 M⁻¹; in the test with β-lactoglobulin (bovine) [5], 972000 M⁻¹. Further, the dH with β-lactoglobulin (bovine) [1] was -18.8 kcal/mol; with β-lactoglobulin (bovine) [2], -14.6 kcal/mol; in the test with β-lactoglobulin (bovine) [3], -12.1 kcal/mol; with β-lactoglobulin (bovine) [4] it was -8.94 kcal/mol; with β-lactoglobulin (bovine) [5] it was -24.7 kcal/mol. The coacervate yield with β-lactoglobulin (bovine) [6] is 55 to 65%.
